This note sets out measurements from PMC11134845.

A word on the stoichiometry N: it is the number of molecules, sites or subunits per partner or assembly.

This experiment addresses HSV-2G gB ectodomain (recombinant glycoprotein B of Herpes simplex virus 2 strain G, aa 22-724) (Herpes simplex virus 2 (strain G)). Briefly: cryo-EM structure.

In the case of “HSV-2G gB ectodomain (recombinant glycoprotein B of Herpes simplex virus 2 strain G, aa 22-724) (domain or fragment)”, the stoichiometry N stood at 3.
